The data set has as its system SspI restriction endonuclease (native) (Sphaerotilus sp. ATCC 13925). In words: cleavage_in_vitro. The conditions noted are these: Mono S fractions, homogeneous; lambda DNA assay stated in D-7.

Consider 1 substance from patent US5516678.

In turn, phage lambda DNA registered an activity of 140000 units/mg.
